8 molecules from US20220220215A1 (CRESCENDO BIOLOGICS, published 2022) can be followed below.

For assay [1], the target named is human CD137 expressed on cells (Jurkat human CD137 NF-kB luciferase reporter cells; human CD8+ T cells) (human, UniProt Q07011 24-255). The assay is described as follows: cell-based or functional assay.
Assay [2] concerns the target T1, recombinant Fc-tagged ectodomain of human CD137 (Acro Biosystems 41B-H5258) (human, UniProt Q07011 24-186).
T1 construct: Bought protein; not shown: Fc tag
The assay is described as follows: SPR, Biacore 8K, single-cycle kinetics; Fc-tagged ectodomain captured on Protein G chip; 1:1 model. How it is done:
(§1) Binding of Humabody® VH constructs was measured using a single-cycle kinetics method using the BIAcore 8K instrument with 90 second sample injections with a sample concentration range of low nanomolar to high nanomolar. […] The Protein G sensor surface was regenerated with a 20 second injection of 10 mM Glycine buffer, pH 1.5 (GE Healthcare BR100354). Data were analysed using a 1:1 binding model in Biacore Insight Evaluation software, including Humabody® VH constructs with two PD-1 arms.
On the technique in general: In SPR one partner is held on a chip, and binding of the other changes the refractive index at the surface.

Assay [3] concerns the target T2, recombinant Fc-tagged ectodomain of human PD1 (Acro Biosystems PD1-H5257) (human, UniProt Q15116 25-170).
T2 construct: Bought protein; not shown: Fc tag
The description is as above. How it is done: as §1

The target in assay [4] is T3, human PD-1 expressed on CHO cells (human, UniProt Q15116 21-288).
T3 construct: also called CHO huPD1; CHO human PD1 cells
The assay is described as follows: FMAT/Mirrorball on CHO huPD1 cells. How it is done:
(§2) Binding of His-tagged molecules to CHO human CD137, CHO parent and CHO human PD1 cells was assessed using Fluorescence Microvolume Assay Technology (FMAT). All reagents were prepared in FMAT assay buffer (pH 7.4) containing PBS, 0.1% Bovine Serum Albumin, 0.05% Sodium Azide. […] Fluorescence emission was then measured on the TTP Mirrorball plate reader in the FL2 (502 nm-537 nm) and FL5 (677-800 nm) channels following excitation at 488 nm and 640 nm. Data was gated on FL5 perimeter and peak intensity and the FL2 median mean fluorescence intensity of the gated data used for determination of VH binding. Monovalent CD137 specific Humabody® VH, and trispecific molecules with a CD137 binding arm bound to CHO CD137 expressing cells. Trispecific Humabody® VH, with a PD1 binding arm bound to PD1 expressing cells.

Assay [5] deals with T4, human CD137 expressed on CHO cells (human, UniProt Q07011 18-255).
T4 construct: also called CHO huCD137; CHO human CD137 cells
The assay is described as follows: FMAT/Mirrorball on CHO huCD137 cells. How it is done: as §2

B1: TPP-1409 CD137A-1GS-HSA2-1GS-PD138G7(G109D) (bispecific antibody)
chain: EVQLVESGGGLVQPGGSLRLSCAASGFTLSNYWMNWVRQAPGKGLEWVANINQDGSERYYVDSVKGRFTISRDNAKNSLYLQMNSLRAEDTAVYYCARGGEGYGVDHYGLDVSGQGTTVTVSSGGGGSEVQLVESGGGLVKPGGSLRLSCAASGFTFSNYNMNWVRQAPGKGLEWVSSISSAGTHIYYADSVKGRFTISRDNAKNSLYLQMNSLRAEDTAVYYCARDPHSTGWYKDFDYWGQGTLVTVSSGGGGSEVQLVESGGGVVRPGGSLRLSCAASGFTFDDYAMSWVRQAPGKGLEWVSGITWNGGSTGYADSVKDRFTISRDNAKNSLYLQMNSLRAEDTALYYCVRDKYSYAWSYDDFDIWGQGTMVTVSS
With B1, in assay [1], the “Jurkat-CD137/CHO-PD-1 Reporter Assay EC50” value was found to be 0.134 nM. Besides, in assay [2], the equilibrium dissociation constant (Kd) (commonly the constant that tells how readily two partners part at equilibrium) stood at 2.02 nM; the koff (in general, a measure of how fast the partners let go of each other) was 0.000307 s⁻¹; the kon – broadly, a measure of how fast the partners come together – came to 152000 M⁻¹ s⁻¹. In assay [3], the Kd is 4.16 nM, the koff came out at 0.00241 s⁻¹ and the kon is 580000 M⁻¹ s⁻¹.

B2: TPP-950: PDA2-6GS-172E1-13-6GS-HSA2-His (bispecific antibody)
chain: EVQLVESGGGVVRPGGSLRLSCAASGFTFDDYAMSWVRQAPGKGLEWVSGITWNAGSTGYADSVKGRFTISRDNAKNSLYLQMNSLRAEDTALYYCVRDKYSYAWSYDDFDIWGQGTMVTVSSGGGGSGGGGSGGGGSGGGGSGGGGSGGGGSEVQLVESGGGVVQPGGSLRLSCAASGFTFSNYGMHWVRQAPGKGLEWVAVISNDGNTKTYADSVKGRFTISRDNSKNTLYLQMNSLRAEDTAVYYCAQDETTTVTASYYFDYWGQGTLVTVSSGGGGSGGGGSGGGGSGGGGSGGGGSGGGGSEVQLVESGGGLVKPGGSLRLSCAASGFTFSNYNMNWVRQAPGKGLEWVSSISSAGTHIYYADSVKGRFTISRDNAKNSLYLQMNSLRAEDTAVYYCARDPHSTGWYKDFDYWGQGTLVTVSSAAAHHHHHH
notes: Single-chain VH fusion (PD-1 VH, CD137 VH, HSA VH), His tag
Take B2: the figures for the EC50 in assay [4] and in assay [5] were 0.844 nM and 0.735 nM, respectively.

B3: TPP-957; PD138G7(G109D)-6GS-172E1-13-6GS-HSA2-His (bispecific antibody)
chain: EVQLVESGGGVVRPGGSLRLSCAASGFTFDDYAMSWVRQAPGKGLEWVSGITWNGGSTGYADSVKDRFTISRDNAKNSLYLQMNSLRAEDTALYYCVRDKYSYAWSYDDFDIWGQGTMVTVSSGGGGSGGGGSGGGGSGGGGSGGGGSGGGGSEVQLVESGGGVVQPGGSLRLSCAASGFTFSNYGMHWVRQAPGKGLEWVAVISNDGNTKTYADSVKGRFTISRDNSKNTLYLQMNSLRAEDTAVYYCAQDETTTVTASYYFDYWGQGTLVTVSSGGGGSGGGGSGGGGSGGGGSGGGGSGGGGSEVQLVESGGGLVKPGGSLRLSCAASGFTFSNYNMNWVRQAPGKGLEWVSSISSAGTHIYYADSVKGRFTISRDNAKNSLYLQMNSLRAEDTAVYYCARDPHSTGWYKDFDYWGQGTLVTVSSAAAHHHHHH
notes: as for B2
Take B3: the EC50 (in general, the concentration needed to bring the measured effect to its halfway point) in assay [4] was 0.766 nM; in assay [5], 1.17 nM.

B4: TPP-1025: CD137A -6GS-HSA3-2-6GS-PDA2-His (bispecific antibody)
chain: EVQLVESGGGLVQPGGSLRLSCAASGFTLSNYWMNWVRQAPGKGLEWVANINQDGSERYYVDSVKGRFTISRDNAKNSLYLQMNSLRAEDTAVYYCARGGEGYGVDHYGLDVSGQGTTVTVSSGGGGSGGGGSGGGGSGGGGSGGGGSGGGGSEVQLLESGGGLVKPGGSLRLSCAASGFTVSSYTMNWVRQAPGKGLEWVSSISSSGRYIYYADSVKGRFTISRDNAKNSLYLQMNSLRAEDTAVYYCARDPRMVGNPHEFDIWGQGTMVTVSSGGGGSGGGGSGGGGSGGGGSGGGGSGGGGSEVQLVESGGGVVRPGGSLRLSCAASGFTFDDYAMSWVRQAPGKGLEWVSGITWNAGSTGYADSVKGRFTISRDNAKNSLYLQMNSLRAEDTALYYCVRDKYSYAWSYDDFDIWGQGTMVTVSSAAAHHHHHH
notes: Single-chain VH fusion (CD137 VH, HSA VH, PD-1 VH), His tag
In assay [4], B4 yielded an EC50 of 1.23 nM.

B5: TPP-951: PDA2-6GS-172E1-13-6GS-HSA3-His (bispecific antibody)
chain: EVQLVESGGGVVRPGGSLRLSCAASGFTFDDYAMSWVRQAPGKGLEWVSGITWNAGSTGYADSVKGRFTISRDNAKNSLYLQMNSLRAEDTALYYCVRDKYSYAWSYDDFDIWGQGTMVTVSSGGGGSGGGGSGGGGSGGGGSGGGGSGGGGSEVQLVESGGGVVQPGGSLRLSCAASGFTFSNYGMHWVRQAPGKGLEWVAVISNDGNTKTYADSVKGRFTISRDNSKNTLYLQMNSLRAEDTAVYYCAQDETTTVTASYYFDYWGQGTLVTVSSGGGGSGGGGSGGGGSGGGGSGGGGSGGGGSEVQLLESGGGLVKPGGSLRLSCAASGFTVSSYTMNWVRQAPGKGLEWVSSISSSGRYIYYADSVKGRFTISRDNAKNSLYLQMNSLRAEDTAVYYCARDPRMVGNPHEFDIWGQGTMVTVSSAAAHHHHHH
notes: as for B2
Regarding B5, the values for the EC50 in assay [4] and in assay [5] were 0.805 nM and 0.419 nM, respectively.

B6: TPP-958: PD138G7(G109D)-6GS-172E1-13-6GS-HSA3-His (bispecific antibody)
chain: EVQLVESGGGVVRPGGSLRLSCAASGFTFDDYAMSWVRQAPGKGLEWVSGITWNGGSTGYADSVKDRFTISRDNAKNSLYLQMNSLRAEDTALYYCVRDKYSYAWSYDDFDIWGQGTMVTVSSGGGGSGGGGSGGGGSGGGGSGGGGSGGGGSEVQLVESGGGVVQPGGSLRLSCAASGFTFSNYGMHWVRQAPGKGLEWVAVISNDGNTKTYADSVKGRFTISRDNSKNTLYLQMNSLRAEDTAVYYCAQDETTTVTASYYFDYWGQGTLVTVSSGGGGSGGGGSGGGGSGGGGSGGGGSGGGGSEVQLLESGGGLVKPGGSLRLSCAASGFTVSSYTMNWVRQAPGKGLEWVSSISSSGRYIYYADSVKGRFTISRDNAKNSLYLQMNSLRAEDTAVYYCARDPRMVGNPHEFDIWGQGTMVTVSSAAAHHHHHH
notes: as for B2
For the molecule B6, the EC50 in assay [4] was 0.346 nM; in assay [5] it was 0.499 nM.

B7: TPP-942: PDA-6GS-172E1-13-6GS-HSA2-2-His (bispecific antibody)
chain: EVQLVESGGGLVQPGRSLRLSCAASGFTFDDYALHWVRQAPGKDLEWVSGISWNGGSYGYADSVKGRFTISRDNAKNSLYLQMNSLRAEDTALYYCVREKGPGLTGSTADYYGLDAWGQGTMVTVSSGGGGSGGGGSGGGGSGGGGSGGGGSGGGGSEVQLVESGGGVVQPGGSLRLSCAASGFTFSNYGMHWVRQAPGKGLEWVAVISNDGNTKTYADSVKGRFTISRDNSKNTLYLQMNSLRAEDTAVYYCAQDETTTVTASYYFDYWGQGTLVTVSSGGGGSGGGGSGGGGSGGGGSGGGGSGGGGSEVQLVESGGGLVKPGGSLRLSCAASGFTFSNYNMNWVRQAPGKGLEWVSSISSAGTHIYYADSVKGRFTISRDNAKNSLYLQMNSLRAEDTAVYYCARDPHSTGWYKDFDYWGQGTLVTVSSAAAHHHHHH
notes: Single-chain fusion of VH single domains (PD-1 VH, CD137 VH, HSA VH) joined by 6GS linkers, His tag
As to B7, the 50% effective concentration (EC50) in assay [4] is 0.164 nM; in assay [5], 0.157 nM.

B8: TPP-943: PDA-6GS-172E1-13-6GS-HSA2-His (bispecific antibody)
chain: EVQLVESGGGLVQPGRSLRLSCAASGFTFDDYALHWVRQAPGKDLEWVSGISWNGGSYGYADSVKGRFTISRDNAKNSLYLQMNSLRAEDTALYYCVREKGPGLTGSTADYYGLDAWGQGTMVTVSSGGGGSGGGGSGGGGSGGGGSGGGGSGGGGSEVQLVESGGGVVQPGGSLRLSCAASGFTFSNYGMHWVRQAPGKGLEWVAVISNDGNTKTYADSVKGRFTISRDNSKNTLYLQMNSLRAEDTAVYYCAQDETTTVTASYYFDYWGQGTLVTVSSGGGGSGGGGSGGGGSGGGGSGGGGSGGGGSEVQLLESGGGLVKPGGSLRLSCAASGFTVSSYTMNWVRQAPGKGLEWVSSISSSGRYIYYADSVKGRFTISRDNAKNSLYLQMNSLRAEDTAVYYCARDPRMVGNPHEFDIWGQGTMVTVSSAAAHHHHHH
notes: Single-chain VH fusion
B8: the EC50 turned out to be 0.144 nM in assay [4] and 0.207 nM in assay [5].
